{
  "source": "paper PMC11610247",
  "key": {"[1]": {"molecular_target": "SNAP-flag-tagged GLP1R p.R380C (human) (UniProt P43220)", "assay": "AlphaScreen or HTRF"}, "[2]": {"molecular_target": "SNAP-flag-tagged WT GLP1R (glucagon-like peptide 1 receptor) (human) (UniProt P43220)", "assay": "AlphaScreen or HTRF"}},
  "data": [
    {"substance": "exendin-4 (from UniProt P26349 48-87) (peptide)", "values": [
      {"measurement": "IC50", "setting": "[1]", "result": 400, "unit": "nM"}
    ]},
    {"substance": "exendin-4 (from UniProt P26349 48-87) (peptide; other documents disagree on this pair)", "values": [
      {"measurement": "pIC50", "setting": "[2]", "result": 8.13}
    ]}
  ]
}
